Here are results for 15 sequences from a protein production outcome set (Wang et al. 2014).

The data set can be described thus: label from the status in PepcDB records.
In the case of “MSVLPCFSLMCSLSLGEVKAVKIKPMLARLQSAMGRDDLIDQMVLLPEPQKGQTTQSINLIVGYDASPNSHTALDIACWIAHQTRLATNQQVTVQAVYVVEDSNTKNRSNILSFAKRLPTIELPPSETKKSSTSVITQPKLTGIKSYLQTDTLTPLQEADRIIWQARTLAEEWQGSFKSHLRFGCVSTELRKVAEFEAADILFLGCKSVYHPLIETLGYNFPCAVLGIPECIDE”, the protein production entry is listed as “failed”.

Consider “MSVPDNVYLIGTMNTADRSLAGLDIALRRRFDFVEMAPRPDKLTGVKVAEIDISAVLETMNRRIEVLLDREHRLGHAYFMSLENSNDLSRLSNIFRQQIIPLLQEYFFEDWQRIAWILNDHRKDERFRFIVPAPYSVDSLFGDTGQVAQDSKAWRMNEEAFHKPQSYLGLEHHHHHH”, for which the protein production result is “not failed”.

Take “MSVQKAVKSSHYEAESNMEQDIVRKAWVFKPSGLNFIWGGDSRYWVIPNEDRTPAELKKVSWLEVTGSYDKIEPGKTYRIGFKISFTADATGWDQAPVFMSAKIGKKGRTIWKRIKSVNNNFDKLKGGTGPVNIPDETDGRFEIFVSPKVAINQDTKLQFGLYEVWTGKWKTGLLIYEAFVEEV”: the protein production result was “failed”.

With “MSVQLVKGVNLHVIPTEKYKTVRLLVRFNTRLNHETITKRTLLSSLMETNSLNYPNQVKLSERLAELYGASFGIGVSKKGNQHWFNISMNIVNDHYLQDSQVLAEAVDFLKEIIFAPNIQAGQFEAETFQREKENLKAYLESIVEDKQTYASLALQSVYFNQSEDQKIPSFGTVAALAEETAASLAAYYQKMLAEDQVDIFVLGDVNEAELVPLFKQLPFTPREEGKAAIFYNQPIRNVIEERTEREVLAQSKLNLAYNTDIYYGDSYYFALQVFNGIFGGFPHSKLFMNVREKEHLAYYASSSIDTFRGFMTVQTGIDGKNRNQVLRLISTELENIRLGKIRELEIEQTKAMLKNQYILALDNAGAWLEKEYLNELMPQTMLTAEEWIARINAVTIPEIQEVAKRLELQAIFFLEGETEND”, the protein production result is given as “not failed”.

On to “MSVSIAYLAVLLIWSTTPLGIVWSSESINPSLAVLLRMLIALVLGALVIKIRNIHIPWHKQAVKLYSFSALGIFGGMLCSYLSAAYLSSGIISLVFGLSPVISALLAKKILSEPNISGMRKFSMAISLIGLAVVCSDNFTLADDGIYGIIFILMAVFFFSLSGVLVKSVSLAIHPLATTVGALSVATPLFLVSWLLLDGTLPIETWQAKSLWATLYLGVFGSLIGFYAYFTVLQKLSASNVTLITLITPVIALTLGAVLNGEVINDKLILGAFMVLLGLSIYHFGHLLPRLKKKRARS”, for which the protein production entry was “failed”.

For the sequence “MSVTFSYLAETDYPVFTLGGSTADAARRLAASGCACAPVLDGERYLGMVHLSRLLEGRKGWPTVKEKLGEELLETVRSYRPGEQLFDNLISVAAAKCSVVPLADEDGRYEGVVSRKRILGFLAERI”, the protein production result was “not failed”.

Regarding “MSVTFSYLAETDYPVFTLGGSTADAARRLAASGCACAPVLDGERYLGMVHLSRLLEGRKGWPTVKEKLGEELLETVRSYRPGEQLFDNLISVAAAKCSVVPLADEDGRYEGVVSRKRILGFLAERIHSGEGGLTMEIEVPPTGAKLSEIIETIEKNDASILSFTSWTTGEGRIIFFRVATHDFFRLVRNMENYGYLIRYHSAFPNAGYDELREKALEFIHYMDM”, the protein production entry is “not failed”.

Turning to “MSVTLVNNENNERYEFETIESTRGPKAVDFSKLFETTGFFSYDPGYSSTAGCQSKISYVNGKKGELYYRGHRIEDLVAKYKYVDVCKLLLTGELPKNQDESLEFELELRHRSFVHESLLNMFSAFPSNAHPMAKLSSGVSILSTLYSTHQNMHTEEDYQTMARRIVAKIPTLAAICYRNEVGAPIIYPDIARSYVENILFMLRGYPYSRLKHTTQGEVEITPLEVEAFDKILTLHADHSQNASSTTVRNVASTGVHPYAAISAGISALWGHLHGGANEKVLLQLEEIGDVKNVDKYIARVKDKNDNFKLMGFGHRVYKSYDPRAKILKGLKDELHQKGVKMDERLSEIAAKVEEIALKDEYFIERNLYPNVDFYSGTILRALKIPVRFFTPVFVIGRTVGWCAQLLEHVKSPQARITRPRQVYVGD”, the protein production entry is on record as “failed”.

In the case of “MSVVPVADVLQGRVAVDQEVTVRGWVRTRRDSKAGISFLAVYDGSCFDPVQAVINNSLPNYNEEVLHLTTGCSVVVTGKVVASPGQGQSFEIQATKVEVAGWVEDPDTYPMAAKRHSIEYLREVAHLRPRTNLIGAVARVRHTLAQALHRFFDEQGFFWVSTPLITASDTEGAGEMFRVSTLDLENLPRNDQGRVDFDKDFFGKESFLTVSGQLNGETYACALSKIYTFGPTFRAENSNTSRHLAEFWMLEPEVAFADLEDNARLAEAMLKYVFNAVLEERADDMKFFAERVDKDAIARLERFVSTDFAQVDYTDAVAILERCGKTFENPVFWGVDLSSEHERYLAEEHFKAPVVVKNYPKEIKAFYMRLNEDGKTVAAMDVLAPGIGEIIGGSQREERLDVLDARMAEMGLNKEDYWWYRDLRRYGTVPHSGFGLGFERLIAYVTGVQNVRDVIPFPRTPRNASF”, the protein production entry is “failed”.

For the sequence “MSVYLVALIGILILGLYILDLRKHKITTREIIMIGLSVAISYVLYMIPLVRYPQGGGITFFSMLPIMLLSLVYGRTVGVTGGLIFGLLKILNGAFIVHPVQFLLDYILSNMALGLAGSFGIDKKYKIFLGSLMAGSISTFVSIVSGVIFFGQYAPPGMNLWIYSIIYNTSSAGVESLLTAIVITIMPIKMLAKRMKPINNI”, the protein production result is listed as “failed”.

Turning to “MSWESINSKDLLSIPPSQNLSATRLLTSPDGSRYLLENSSDLCHLDESFSRLAGYGSSPDVGSRSVWASQALLRSGSVISCFLSCQQSLRQYIAKRKIERGRRLYEQNNQTEAVRTWRSALKGTCQREDCFQLLGYLYQAHMDWGKFREAIEFSHQQLGISEELDSPNMRAETYLNLSRAHASLGGLERSLSYARHSLYNECGTKCRSGLVHLTVARVYLEMGGFSRALEGLQGAYKIATAIGDPSLELQVYVALSELFGRLQDNDKSATYASKAYDLSRSLQLGDLNSCHHRAALLRMAVSLRKQGELGDAQDYCKEATKLSLISGDQATYTRSIRVMGDIYRNKMDMDRAFRQYEQAMGTSASLGDRMAQMEAMDGAARCLETLRLQNKICNCRPLEFNTRLLEVASSIGAKFLVRKIRCRLALIYRALGDEDQYNTHFRLANQTDAALGLNCGACGELLGLRPENLEALPCAHILHARCAYEILRRREKNAPRSCPACNKLISSRTHFCGSVPVESESTDRCVTAASTFNTNSLSVDGLLGINSDILLPSAAFCYVKNPALDTENSALLSPKVIYHSNLSLASLSMRASSLTIDSGQNVTSSV”, the protein production result is listed as “failed”.

As for “MSWLFSTLVFFLTLLTAGIALYLITARRYQSSNSVANSYDQWTEDGILEFYWGEHIHLGHYGSPPQRKDFLVAKSDFVHEMVRWGGLDKLPPGTTLLDVGCGIGGSSRILARDYGFAVTGITISPQQVQRAQELTPQELNAQFLVDDAMALSFPDNSFDVVWSIEAGPHMPDKAIFAKELMRVLKPGGIMVLADWNQRDDRQKPLNFWEKPVMQQLLDQWSHPAFSSIEGFSELLAATGLVEGEVITADWTKQTLPSWLDSIWQGIVRPEGLVRFGLSGFIKSLREVPTLLLMRLAFGTGLCRFGMFRALRADTVRSSAEQTSAIKVAQK”, the protein production result is reported as “failed”.

In the case of “MSWYRRTKLVFDSLRRNINPKILPRSHVTSRINNPIGSSNPSAKFSSISSREVGLRSWTSLGRNTNRIAYNPFLSQPKRYYYVDRYQVRHFKPRGPGRWFQNPRTVFTVVLVGSVGLITLIVGNTETIPYTKRTHFILLSKPMEKLLGETQFEQIKKTYQGKILPATHPESIRVRLIAKEVIDALQRGLSNERVWSDLGYASTESSLGGGSDKGVKEMEMAMSGEDTMTDMKWSKEDQVLDDQWIQKSRKKDSKAHAATSHLEGISWEVLVVNEPIVNAFCLPAGKIVVFTGLLNHFKSDAEVATVIGHEVGHAVARHVAEGITKNLWFAILQLVLYQFVMPDLVNTMSALFLRLPFSRKMEIEADYIGLLLLASAGYDPRVAPTVYEKLGKLGGDALGDYLSTHPSGKKRSKLLAQANVMEEALMIYREVQAGRTGVEGFL”, the protein production entry is reported as “failed”.

Consider “MSYGLIIVLMIILGIGLWHTKKYHRAVVNQVAHVWITKNAFEHTALGMAIVSPDCRFLKVNRAYGEITGYTRPELLKMAVKELTHPEDQEKDTPYLQEVFAGNIHSFTTVKRYIHKNGSTIWVRSTISAVRTERGNLEHHHHHH”, for which the protein production entry is on record as “not failed”.

Take “MSYGLIIVLMIILGIGLWHTKKYHRAVVNQVAHVWITKNAFEHTALGMAIVSPDCRFLKVNRAYGEITGYTRPELLKMAVKELTHPEDQEKDTPYLQEVFAGNIHSFTTVKRYIHKNGSTIWVRSTISAVRTERGNLKYFVLEHHHHHH”: the protein production result was “failed”.
